Measurements reported in patent US12571800B2, “Means and methods for treating angiogenesis-related diseases” (Heidelberg Biotech GmbH, priority 2011, dated 2026).
Where two headings read alike, the source gives them in different places.

Key:
Lewis Lung Cancer tumors = assay: Sequential in-vivo passaging of LLC tumors under Fc-endostatin; design: species or system C57/B16 mice
Method: Dimerization of the NC-1 endostatin domains were achieved using IgG-Fc. […] Sequential in-vivo tumor passaging was performed to achieve prolonged and continuous exposure to anti-angiogenic therapy to enrich for the resistant tumor cell population.
Murine Lewis Lung Carcinoma (LLC) tumors were implanted s.c. into C57/B16 mice. Tumors were treated with a murine oligomeric-NC1 fragment, mFc-endostatin, at doses indicated. LLC tumors were exposed in-vivo for a prolonged period to mFc-endostatin by sequential transplantation of tumors (up to four passages, p4) once they evade therapy and reach a size of approximately 1000-2000 mm^3. Control tumors were also sequentially transplanted into new mice without mFc-endostatin treatment. Tumor volume was measured by caliper measurement (FIG. 8). After four passages, both mFc-endostatin resistant as well as control tumors were excised, total RNA was isolated and after QC hybridized on genome-wide microarrays for transcriptional analysis. Microarray data were analyzed using SUMO software package. Quantitative real-time RT-PCR was performed using Taqman technology to confirm the expression of candidate genes identified by microarray analysis.

[1] = in vivo, cited from earlier work
ASPC-1 xenograft = assay: Immunofluorescence distribution in ASPC-1 xenograft mice; conditions: mouse, in vivo
Excerpt: Immunohistochemistry was used to verify the distribution of Fc-endostatin in ASPC-1 xenograft mice after treatments. (A) The exogenous endostatin was detected by Alexa 488-labeled antibody (green) and vessel marker, CD31 was used and detected by Alexa 594-labeled antibody (red) in tumor, heart and kidney. (B) α-SMA, pericyte marker (red) was used to confirm the endostatin binding to tumor vessels. (C) Exogenous endostatin (green) distribution is similar to fibronectin (red) in tumor. […] (D) Endogenous collagen 18 (green) and fibronectin (red) were detected by polyclonal antibodies against endostatin and fibronectin in non-treated animal tumor. (E) Staining of Fc-endostatin and integrin α5β1. (F) Staining of vW and integrin α5β1. (G) E14.5 mouse brain embryonic sections were used to verify the distribution of fibronectin, VEGF and Fc-endostatin (Bar, 100 μm).
1.6 Immunohistochemistry. Tumors sections were rinsed by cold PBS and fixed with 4% paraformaldehyde for 10 min with before staining. Human Fc-endostatin was detected by Alexa 488 anti-human IgG. Antibodies to collagen 18 (R&D), fibronectin (R&D), integrin α5 (R&D) CD31 (BD Pharmingen, San Jose, CA) and von Willebrand Factor (Dako, Carpinteria, CA), α-SMA (Dako, Carpinteria, CA) were used for staining. The primary antibodies were detected by Alexa 488 or 594-labeled secondary antibodies (Molecular Probes, Eugene, OR). The sections were imaged by confocal-microscopy (model DM IRE2: Leica).
Immunofluorescence (IF) analysis was used to verify the systemic distribution of hFc-endostatin in an ASPC-1 xenograft animal model. […] In addition to CD31 (endothelial cell) staining, the pericyte marker, α-SMA was used to confirm the interaction of endostatin with blood vessels (FIG. 2B). To examine binding of endostatin to fibronectin, hFc-endostatin treated tumor sections of xenograft models were prepared. […] Co-localization of endogenous collagen 18 and endogenous fibronectin has also been detected (FIG. 2D). […] In addition, ex vivo E14.5 mouse brain embryonic sections were used to confirm this phenomenon. […]

[2] = in vivo; cited from earlier work
HUVECs = assay: Immunofluorescence, endothelial cell surface binding; assay type: cell-based, human
Method: HUVECs were incubated with Fc-endostatin and detected with Alexa 488 IgG or human NC-1 (hNC-1) trimer and detected by anti-His tag monoclonal antibody.
1.5 Immunocytochemistry. HUVECs were plated and grown on cover slips. […] The slips were incubated in the blocking buffer (2% BSA PBS) for 30 min. For hFc-endostatin or hFc groups, the slides were incubated with Alexa 488 antihuman IgG for imaging. For hNC-1 or IgG groups, the slides were incubated with mouse anti-His-tag monoclonal antibody, then probed by Alexa 488 anti-mouse IgG. Anti-fibronectin antibody (R&D) was used for secondary staining for all slides and probed by Alexa 594 anti-goat IgG and imaged by confocal-microscopy. DAPI counterstaining of nuclei is shown in blue.
2.3 Binding of oligomeric hFc-endostatin and hNC-1 to HUVECs. Immunoflourescence technique was employed to detect endothelial cell surface binding of oligomeric endostatin and NC-1.

B1: Fc-endostatin: human endostatin with the Fc domain at its N-terminus, expressed in NS/0 cells (protein)
chain: HSHRDFQPVLHLVALNSPLSGGMRGIRGADFQCFQQARAVGLAGTFRAFLSSRLQDLYSIVRRADRAAVPIVNLKDELLFPSWEALFSGSEGPLKPGARIFSFDGKDVLRHPTWPQKSVWHGSDPNGRRLTESYCETWRTEAPSATGQASSLLGGRLLGQSAASCHHAYIVLCIENSFMTASK
modifications: left off: a dimerising Fc or GST
notes: human endostatin with the Fc domain at its N-terminus, expressed in NS/0 cells
Lewis Lung Cancer tumors; continuous exposure over four passages
  tumor growth, passage 4 (P4): growing even faster than non-treated control p4 tumors
Lewis Lung Cancer tumors; p1
  tumor growth, first passage (p1): strong initial inhibition of tumor growth
[1]
  half-life in circulation: longer half-life than endostatin
[1]; listed as endostatin fused to the Fc domain of an IgG antibody
  half-life in circulation: longer than a week
ASPC-1 xenograft
  co-localization with fibronectin in tumor sections: co-localization with endogenous fibronection
  co-localization with integrin α5β1: co-localized with integrin α5β1
  systemic distribution (antibody to Fc): found not only in tumor but also in heart and kidney endothelial cells
[2]
  smaller dose required for the same tumor reduction vs endostatin alone: 50-100 fold
HUVECs; cells cultured only for 24 hours
  binding to HUVECs: poor binding
HUVECs; incubation time prolonged to 72 hours
  binding to HUVECs: significant binding
